Laboratory results reported in patent US20240240209A1, “SYNTHESIS OF ENANTIOPURE CIS-A-IRONE FROM A RENEWABLE CARBON SOURCE” (Agency for Science, Technology and Research, priority 2021, published 2024).
Residue numbers refer to the chain shown, from its start. In names and notes the source's numbering stands.

Test: Cell lysate reaction of pMT enzymes with psi-ionone, irones quantified by HS-SPME-GCMS
Assay type: biochemical
Settings: AUC vs non-mutated (=1)
How it was run: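 pMT1 site-saturation mutants were expressed in E. coli BL21(DE3) and lysed, and lysates were incubated 2 days at 28 °C with 0.2 mM SAM and 10 mg/L psi-ionone (plus caryophyllene) in 50 mM Tris pH 7, 10 mM MgCl2. Cis-α-irone was measured by HS-SPME-GCMS peak area and given as fold change over non-mutated enzyme.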

B1: pMT1_R160T: pMT1 with R160T (protein)
chain: MPQEARTPQQQVTADEVGDWYDKFGEVYHLTLGESVHCGLWFPPDAPVPQDMELVTMSSQAQDRYTDYLIETLDPKAGQHLLDIGCGTGRTALKAARQRGIAVTGVAVSKEQIAAANRLAAGHGLTERLTFEVADAMRLPYEDESFDCAWAIESLCHMDTAKALGEAWRVLKPGGDLLVLESVVTEELTEPETALFETLYAANVPPRLGEFFDIVSGAGFHTLSLKDLSANLAMTMNVFALGVYSRRAEFTERFGAEFVDGLLAGLGSAQETLIRKTRFFMATLRKPAV
Which “fold change in cis-α-irone produced” value (pMT1_R160 mutants) does the source give for B1 here?
Its value is 1.2.

B2: pMT1_S182E: pMT1 with S182E (protein)
chain: B1 chain with T160R, S182E
For B2, which “fold change in cis-α-irone produced” value (pMT1_S182 mutants) is on record?
The value was 0.84.

B3: pMT1_R160V: pMT1 with R160V (protein)
chain: B1 chain with T160V
For B3, which “fold change in cis-α-irone produced” value (pMT1_R160 mutants) is on record?
The value was 1.5.

B4: pMT1_S182T: pMT1 with S182T (protein)
chain: B1 chain with T160R, S182T
With B4 as the molecule, how does the “fold change in cis-α-irone produced” value (pMT1_S182 mutants) read?
The value was 0.23.

B5: pMT1_M236T: pMT1 with M236T (protein)
chain: B1 chain with T160R, M236T
Which “fold change in cis-α-irone produced” value (pMT1_M236 mutants) does the source give for B5 here?
The value was 1.7.

B6: pMT1_Y200C: pMT1 with Y200C (protein)
chain: B1 chain with T160R, Y200C
Which “fold change in cis-α-irone produced” value (pMT1_Y200 mutants) does the source give for B6 here?
The value was 0.1.

B7: pMT1_M236V (protein)
chain: B1 chain with T160R, M236V
For B7, which “fold change in cis-α-irone produced” value (pMT1_M236 mutants) is on record?
Its value is 0.7.

B8: pMT1_R160Y (protein)
chain: B1 chain with T160Y
Which “fold change in cis-α-irone produced” value (pMT1_R160 mutants) does the source give for B8 here?
The value was 1.3.

B9: pMT1_M236A: pMT1 with M236A (protein)
chain: B1 chain with T160R, M236A
For B9, which “fold change in cis-α-irone produced” value (pMT1_M236 mutants) is on record?
Its value is 0.7.

B10: pMT1_Y200E: pMT1 with Y200E (protein)
chain: B1 chain with T160R, Y200E
For B10, which “fold change in cis-α-irone produced” value (pMT1_Y200 mutants) is on record?
The value was 0.0.

B11: pMT1_Y200W: pMT1 with Y200W (protein)
chain: B1 chain with T160R, Y200W
With B11 as the molecule, how does the “fold change in cis-α-irone produced” value (pMT1_Y200 mutants) read?
The value was 2.1.

B12: pMT1_Y200D: pMT1 with Y200D (protein)
chain: B1 chain with T160R, Y200D
Which “fold change in cis-α-irone produced” value (pMT1_Y200 mutants) does the source give for B12 here?
Its value is 0.0.

B13: pMT1_M236D: pMT1 with M236D (protein)
chain: B1 chain with T160R, M236D
Which “fold change in cis-α-irone produced” value (pMT1_M236 mutants) does the source give for B13 here?
The value was 0.0.

B14: pMT1_E153Y: pMT1 with E153Y (protein)
chain: B1 chain with E153Y, T160R
For B14, which “fold change in cis-α-irone produced” value (pMT1_E153 mutants) is on record?
Its value is 0.0.

B15: pMT1_M236Y: pMT1 with M236Y (protein)
chain: B1 chain with T160R, M236Y
Which “fold change in cis-α-irone produced” value (pMT1_M236 mutants) does the source give for B15 here?
The value was 0.0.

B16: pMT1_M236W: pMT1 with M236W (protein)
chain: B1 chain with T160R, M236W
With B16 as the molecule, how does the “fold change in cis-α-irone produced” value (pMT1_M236 mutants) read?
Its value is 0.2.

B17: pMT1_E153D: pMT1 with E153D (protein)
chain: B1 chain with E153D, T160R
For B17, which “fold change in cis-α-irone produced” value (pMT1_E153 mutants) is on record?
The value was 0.2.

B18: pMT1_Y200T: pMT1 with Y200T (protein)
chain: B1 chain with T160R, Y200T
With B18 as the molecule, how does the “fold change in cis-α-irone produced” value (pMT1_Y200 mutants) read?
Its value is 0.0.

B19: pMT1_R160W: pMT1 with R160W (protein)
chain: B1 chain with T160W
Which “fold change in cis-α-irone produced” value (pMT1_R160 mutants) does the source give for B19 here?
The value was 0.7.

B20: pMT1_E153C: pMT1 with E153C (protein)
chain: B1 chain with E153C, T160R
Which “fold change in cis-α-irone produced” value (pMT1_E153 mutants) does the source give for B20 here?
The value was 0.0.

B21: pMT1_E153V: pMT1 with E153V (protein)
chain: B1 chain with E153V, T160R
Which “fold change in cis-α-irone produced” value (pMT1_E153 mutants) does the source give for B21 here?
The value was 0.0.

B22: pMT1_E153W: pMT1 with E153W (protein)
chain: B1 chain with E153W, T160R
For B22, which “fold change in cis-α-irone produced” value (pMT1_E153 mutants) is on record?
The value was 0.0.

B23: pMT1_R160A: pMT1 with R160A (protein)
chain: B1 chain with T160A
For B23, which “fold change in cis-α-irone produced” value (pMT1_R160 mutants) is on record?
Its value is 1.7.

B24: pMT1_R160C: pMT1 with R160C (protein)
chain: B1 chain with T160C
With B24 as the molecule, how does the “fold change in cis-α-irone produced” value (pMT1_R160 mutants) read?
Its value is 1.5.

B25: pMT1_M236E: pMT1 with M236E (protein)
chain: B1 chain with T160R, M236E
Which “fold change in cis-α-irone produced” value (pMT1_M236 mutants) does the source give for B25 here?
The value was 0.9.

B26: pMT1_E153A: pMT1 with E153A (protein)
chain: B1 chain with E153A, T160R
For B26, which “fold change in cis-α-irone produced” value (pMT1_E153 mutants) is on record?
The value was 0.1.

B27: pMT1_M236C: pMT1 with M236C (protein)
chain: B1 chain with T160R, M236C
With B27 as the molecule, how does the “fold change in cis-α-irone produced” value (pMT1_M236 mutants) read?
The value was 4.7.

B28: pMT1_Y200A: pMT1 with Y200A (protein)
chain: B1 chain with T160R, Y200A
With B28 as the molecule, how does the “fold change in cis-α-irone produced” value (pMT1_Y200 mutants) read?
Its value is 0.2.

B29: pMT1_R160D (protein)
chain: B1 chain with T160D
For B29, which “fold change in cis-α-irone produced” value (pMT1_R160 mutants) is on record?
Its value is 0.0.

B30: pMT1_Y200V: pMT1 with Y200V (protein)
chain: B1 chain with T160R, Y200V
Which “fold change in cis-α-irone produced” value (pMT1_Y200 mutants) does the source give for B30 here?
The value was 1.1.

B31: pMT1_E153T: pMT1 with E153T (protein)
chain: B1 chain with E153T, T160R
Which “fold change in cis-α-irone produced” value (pMT1_E153 mutants) does the source give for B31 here?
The value was 0.0.

B32: pMT1_R160E (protein)
chain: B1 chain with T160E
Which “fold change in cis-α-irone produced” value (pMT1_R160 mutants) does the source give for B32 here?
The value was 0.0.
